This data set concerns the molecule itself. Put plainly: cryo-EM structure; dual motor condition: GFP-tagged myosin V and myosin VI anchored to a holey carbon grid by an anti-GFP antibody, F-actin applied, then MB-ATP (20 mM MOPS pH 7.4, 5 mM MgCl2, 0.1 mM EGTA, 1 mM DTT, 1 mM ATP, 0.01% NP-40) with α-catenin ABD for 30 s before plunge freezing; 0.6 µM F-actin and 1 µM α-catenin ABD (sub-saturating); consensus map 10.4 Å, 3DVA-sorted map 12.3 Å.

B1: C-terminal actin-binding domain (ABD) of human α-catenin (amino acids 664–906) (domain or fragment, UniProt P35221 664-906, looked up)
chain: IAGQSARAIMAQLPQEQKAKIAEQVASFQEEKSKLDAEVSKWDDSGNDIIVLAKQMCMIMMEMTDFTRGKGPLKNTSDVISAAKKIAEAGSRMDKLGRTIADHCPDSACKQDLLAYLQRIALYCHQLNICSKVKAEVQNLGGELVVSGVDSAMSLIQAAKNLMNAVVQTVKASYVASTKYQKSQGMASLNLPAVSWKMKAPEKKPLVKREKQDETQTKIKRASQKKHVNPVQALSEFKAMDSI
notes: the tags were removed with TEV protease; also called α-catenin ABD; αE-catenin ABD; source: E. coli Rosetta2(DE3), purified (Ni-NTA, TEV cleavage, anion exchange, SEC); not shown: His6, N-terminal, cleaved; strep tag, N-terminal, cleaved
With B1, the binding result is reported as “binds”.

The record behind these values is PMC13233326, “Myosin forces remodel F-actin for mechanosensitive protein recognition” (Nature, 2026).
